This assay has as its target SARS-CoV-2野生型(WT) S蛋白 (病毒颗粒上) (SARS-CoV-2, UniProt P0DTC2 14-1273). Put plainly: cell-based or functional assay.

B1: 抗体09C7 (antibody, V domains shown)
VH: QVTLRESGPTLVKPKQTLTLTCTFSGFSLSTPGGGVGWIRQPPGKALEWLALIYWDDDKRYSPSLKSSLTITKDTSKNQVVLTMTNMDPVDTATYYCARLTAADTIFDCWGQGTLVTV
VL: QSALTQPASVSGSPGLSITISCTATSSDVGAYNYVSWYQQHPGQAPKLMIYDVSKRPSGVSNRFSGSKSANTASLTISGLQAEDEADYYCSSYTTTSVVFGGGTKLTVL
As to B1, the “IC50, pseudovirus neutralisation (luciferase, Huh-7 cells)” value was 4 ng/mL.

These data come from patent CN117736314A (ADVACCINE SUZHOU BIOPHARMACEUTICAL CO LTD; UNIV FUDAN, dated 2024).
